Source: patent US20210315969A1, “GLYCOPROTEINS HAVING LIPID MOBILIZING PROPERTIES AND THERAPEUTIC USES THEREOF” (Aston University, priority 2008, published 2021)

Tests used:
[1] = 21 day study of ZAG in ob/ob mice; type: in vivo
Procedure: FIG. 7A is a graphical diagram showing weight loss of the ob/ob mice during the 21 day study. ZAG was injected at days 1, 4, 5, 8, 13, 16, 18, and 19; PBS was injected at the same time points.
Animals—Mice—Homozygous obese (ob/ob) mice from the colony maintained at Aston University were used in the present study. The origin and characteristics of Aston ob/ob mice have been previously described. Male mice (20-21 weeks old, weight 90-100 g) were grouped into three per cage in an air conditioned room at 22 ±2° C. with a 12 h-light:12 h-dark cycle and fed a rat and mouse breeding diet (Special Diet Services, Witham, UK) and tap water ad libitum. They were administered ZAG (35 μg) in PBS (100 μl) b.d. by i.v. administration and body weight and food and water intake were monitored daily. Control mice received PBS alone. Body temperature was measured daily by the use of a rectal thermometer (RS Components, Northants, UK). All animal experiments were carried out in accordance with the U.K. Animals (Scientific Procedures) Act 1986.
Serum Metabolite Determinations—Non-esterified fatty acids (NEFA) were determined using a Wako-ASC-ACOD kit (Wako Chemical GmbH, Neuss, Germany). Triglycerides were determined using a Triglyceride kit (Sigma Chemical Co., Poole, United Kingdom) and 3-hydroxybutyrate by a quantitative enzymatic determination kit (Sigma). Glucose was measured using a glucose analyser (Beckman, Irvine, Calif.) and glycerol was determined enzymatically using the method of Wieland as described in “Methods of Enzymatic Analysis” (Ed, Bergmeyer, H. U.) Vol. 3, pp1404-1409, published by Academic Press, London (1974).

[2] = system: protein expression in WAT, BAT and gastrocnemius muscle; assay: Western blot of WAT, BAT and gastrocnemius muscle of rats treated with ZAG; type: in vivo, Wistar rats
Procedure: Samples of cytosolic protein (10 μg) were resolved on 12% sodium dodecylsuiphate polyacrylamide gel electrophoresis and the proteins were then transferred onto 0.45 μm nitrocellulose menibranes, which had been blocked with 5% N,Tarvel in ids-buffered saline, pH 7.5, at 4° C. overnight, and following four 15 min washes with 0.1% Tween in PBS, incubation with the secondary antibody was performed for 1 h at room temperature. Development was by ECL.

C2Cl2 myotubes = assay: ROS formation and PKR/eIF2α phosphorylation in myotubes treated with glucose; type: cell-based, murine
From the text: FIG. 21 is a graphical diagram showing ROS activity in C2Cl2 myotubes treated with various concentrations of glucose with and without ZAG. Statistically significant c, P<0.001 from control f, P<0.001 from glucose alone.
FIG. 22A is a pictorial diagram of a Western blot showing PKR in C2Cl2 myotubes treated with glucose with and without ZAG. Statistically significant c, P<0.001 from control f, P<0.001 from glucose alone.
FIG. 22B is a pictorial diagram of a Western blot showing elF2a in C2Cl2 myotubes treated with glucose with and without ZAG. Statistically significant c, P<0.001 from control f, P<0.001 from glucose alone.
It has been shown that formation of reactive oxygen species (ROS) is important in protein degradation induced by high glucose load. […] High glucose also induces activation (phosphoiylation) of PKR (FIG. 22A) and the subsequent phosphorylation of elf2α (FIG. 22B) as is seen in skeletal muscle of ob/ob mice, which was also attenuated by ZAG.

[3] = Interval administration / pilot scheduling study of ZAG in ob/ob mice; type: in vivo
Procedure: While not wanting to be limited by theory, it may be that the subjects are receiving too much ZAG or that there is receptor desensitization as is seen with TNF. A pilot study was performed with 2 mice in each group to determine optimal scheduling of ZAG delivery.

adipocytes = assay: Lipolytic responsiveness of adipocytes from ZAG treated ob/ob mice to isoprenaline or BRL37344; type: in vivo
From the text: FIG. 5K is a graphical diagram showing the response of adipocytes from epididymal (ep), subcutaneous (sc) and visceral (vis) deposits from ob/ob mice treated with either PBS or ZAG for 5 days to the lipolytic effect of BRI,37344, Differences from PBS controls are indicated as *** p<0.01, while differences in the presence of PD98059 is shown as # p<0.001.
FIG. 9 is a graphical diagram showing glycerol release stimulated by isoprenaline (iso) isolated adipocytes which have been in culture up to 5 days from ob mice treated with and without ZAG.
Lipolytic Assay—Samples to be assayed were incubated with 10^5 to 2×10^5 adipocytes for 2 h in 1 ml Krebs-Ringer bicarbonate buffer, pH 7.2. The concentration of glycerol released was determined enzymatically by the method of Wieland (Wieland, O. Glycerol UV method. In Methods of Enzymatic Analysis (ed. Bergmeyer, H. U.) (Academic Press, London, UK, pp 1404-1409, 1974)). Control samples containing adipocytes alone were analysed to determine the spontaneous glycerol release. Activity was expressed as nmol glycerol released/10^5 adipocytes/2 h.
Adipocytes were removed from mice after 5 days of ZAG and their responsiveness to isoprenaline (iso) was measured after culture in the absence of ZAG (FIG. 9), The responsiveness to iso is higher in ZAG treated mice and this continues for a further 4 days (Which was when expression of ZAG and HSL were increased) and then falls on day 5 (when expression was not increased) down to values of PBS control.
The data shown in Attachment 1 is from a 5 day study where ZAG was administered at 35 μg per day i.v. on a daily basis for 5 days. At the end of the experiment tissues were removed and blotted, or functional assays were carried out with isolated adipocytes. […] When ep adipocytes were prepared and maintained in tissue culture (RPMI 1640 ±10% FCS) ZAG expression was maintained for a further 3 days, even though no ZAG was added to the culture medium (FIG. 6B). […] In fact, as discussed above, too much ZAG is more likely to lead to resistance rather than an increased response.

B1: Zinc-α2-glycoprotein (protein, listed as Homo sapiens)
chain: QENQDGRYSLTYIYTGLSKHVEDVPAFQALGSLNDLQFFRYNSKDRKSQPMGLWRQVEGMEDWKEDSQLQKAREDMETLKDIVEYYNDSNGSHVLQGRFGCEIENNRSSGAFWKYYYDGKDYIEFNKEIPAWVPFDPAAQITKQKWEAEPVYVQRAKAYLEEECPATLRKYLKYSKNILDRQDPPSVVVTSHQAPGEKKKLKCLAYDFYPGKIDVHWTRAGQVQEPELRGDVLHNGNGTYQSWVVVAVPPQDTAPYSCHVQHSSLAQPLVVPWEAS
notes: recombinant human Zinc-α2-glycoprotein, lipid mobilizing factor, expressed in HEK293F cells
urinary glucose excretion ([1]; first 5 days and 21 day study): progressive decrease | peak body temperature ([1]; just before maximum weight loss): 38.1 °C | Start weight ([1]; ob/ob mice, 21 day study, before treatment, in g): 93.1 ± 1.9 | BAT ([1]; ob/ob mice, Day 21 (Table 3)): 0.41 ± 0.35 g | Gastrocnemius ([1]; ob/ob mice, Day 21 (Table 3)): 0.39 ± 0.12 g | Soleus ([1]; ob/ob mice, Day 21 (Table 3)): 0.18 ± 0.07 g | expression of glucose transporter 4 (GLUT4) in BAT, WAT and skeletal muscle ([2]; 10 days): increased expression | expression of phosphorylated forms of PKR and eIF2 α-subunit in gastrocnemius muscle ([2]; total amount did not change): significant reduction | glucose induced phosphorylation of PKR and eIF2α (C2Cl2 myotubes): attenuated | increase in ROS produced by glucose (C2Cl2 myotubes): completely attenuates | weight loss on long-term daily administration [3]: cessation of weight loss | weight loss with break of 3-4 days followed by re-infusion [3]: continued weight loss | responsiveness of adipocytes to isoprenaline (adipocytes; adipocytes from mice after 5 days ZAG, cultured in absence of ZAG): higher | lipolytic response of epididymal adipocytes to the β3 agonist BRL37344 (adipocytes; adipocytes from mice treated 5 days): increased lipolytic response | time the increased response to isoprenaline was maintained in tissue culture (adipocytes; isoprenaline 10 μM, absence of ZAG): 4 days
